Earlier results, collected in patent publication US20110212858A1, “SYNTHETIC POLY D/L LYSINE FOR CONTROL OF DIRECTION AND RATE OF NEURITE GROWTH AND REGENERATION” (CHILDRENS HOSPITAL LOS ANGELES, priority 2008, published 2011).

Conditions: requires storage at −80° C.

For laminin, the shelf life is given as “limited shelf life”.
